From patent publication US20220315908A1, “NOVEL GARDNERELLA ENDOLYSINS AND USES THEREOF” (priority 2019, published 2022)

Test system: G. swidsinskii strain Gv_23
Assay: Quantitative reduction in viable CFU assay in bacterial suspension
Type: cell-based, Gardnerella swidsinskii
Details: 5 hours, pH 5.0, anaerobic, 10 ul endolysin (0.2 mg/ml where possible) + 90 ul 5e7 CFU/ml, average of triplicate
Method: The lysis activity on the four main species of Gardnerella of 91 constructs (natural and domain-swapped endolysins) was quantitatively assessed using the method described in Reference Example 2. Briefly, 90 ul 5e7 CFU/ml of the indicated strain were incubated for 5 hours at pH 5.0 under anaerobic conditions with 10 ul endolysin (concentration adjusted to 0.2 mg/ml where possible, see Table 4).
The results are shown in FIGS. 8A to 8D together with Tables 5A to 5C. In FIGS. 8A to 8D, the logarithmic Y axis depicts the count of surviving cells. The dotted line indicates the limit of detection (LOD) given by plating of 2 ul of the reaction mix (500 CFU/ml). Each combination of the natural 10 H-domains and the natural 9 B-regions was assessed, including the natural endolysins (H1B1, H2B2, H3B3, etc.), plus H6B6. […] The activity of each construct was measured on each of the 4 main Gardnerella species G. vaginalis sensu stricto, G. leopoldii, G. piotii, and G. swidsinkii. All conditions have been measured in triplicate. The survival after 5 hours incubation at pH 5.0 under anaerobic conditions with endolysins vs. buffer was measured by quantitative plating. The values indicate the log 10 of the ratio of surviving CFU for treated vs. untreated cells. The average of the triplicate measurements is used. In tables 5A and 5B, high negative log 10 values, e.g. −6.7, −5.5, −4.8 etc. are associated with high enzymatic activity, while log 10 values closer to zero or even positive log 10 values are associated with low or no enzymatic activity. […] Inversely, a reduction value of −3.7 means a 10^3.7-fold (=5012-fold) reduction of viable CFU in treated sample vs. untreated control.
Gardnerella cells were recovered from cryo stock by plating on Chocolate Agar plates (Beckton Dickinson) and incubating for 48 h at 37° C. under anaerobic conditions. For Lactobacilli, BD Schaedler/5% sheep blood agar plates were used instead. Colonies were scraped from the plate, resuspended in Hardy Broth or NYC-III-HS-5.0 at the pH as indicated, and the suspension adjusted to OD (610 or 620 nm as indicated) 0.1. It has to be noted that two Tecan Microplate readers, having respectively a 610 nm or 620 nm filter, have been used interchangeably in the experiments. Although it doesn't make any difference for the experiments, the exact wavelength used is specified in each example. If not stated otherwise, 90 μl cell suspension was mixed with 10 μl endolysin solution, for the different species/endolysin combinations, in 384-well plates. OD(610-620 nm as indicated) was measured at the beginning of the reaction and at the end, either as two measurement points or as a continuous kinetic in a Tecan F200 Microplate reader. The reactions were incubated for 5 hours (or otherwise the time indicated) at 37° C. under anaerobic, micro-aerophilic or aerobic conditions as indicated. Anaerobic conditions intend that oxygen was fully depleted from the container in which the bacteria are incubated (Sigma-Aldrich anaerobic jar or sealable lunch box) with an anaerobic sachet, and the lack of oxygen was confirmed with an anaerobic indicator inside the container. Where micro-aerophilic conditions are indicated, the candle-in-a-jar method was used (tea candle lit in an appropriate sealable container, which reduces oxygen levels until the flame dies out). Then each well was diluted in 5 steps (10^−1 to 10^−5) using 96-U-well bottom plates, and 2 μl of each dilution of each reaction mix are plated on BD Chocolate agar plates or BD Schaedler/5% sheep blood agar plates for Gardnerella and Lactobacilli, respectively, for detecting and quantifying surviving CFU. Detection plates were incubated at 37° C. for 48 hours under anaerobic conditions.

Molecule	log 10 of the ratio of surviving CFU for treated vs. untreated cells
H10B10: natural Gardnerella prophage endolysin from strain G30-4 (protein, EL10_strain_G30-4) MSKRGIDVSVWQGDIDFNAVKASGVEFVIIRAGYGIGHKDKWFEENYRKAKTVGLDVGAYWYSYASSAGEASEEAQSCVNILSGKSFEYPVYFDLEEKSQLNRGRDFCDSLITSFCNKLEACGYYAGFYTSLSVANNLVSSHVRDRYALWIAQWNTHCSYQGSYGLWQYSSSGSVNGIAGRVDMDYAYVDYPSVIKNAGLNGYKNGGSYTAPQISSIDEVAREVINGDWGNGNERKQRLTSAGYDYASVQNKVNELLGVKAYRKSVDELAREVIRGTWGNGSTRKQRLTQAGYDYNAVQKRVNELL	−5.5 log 10
H1B1: natural Gardnerella prophage endolysin from strain HMP9231 (protein, EL1_strain_HMP9231, natural Gardnerella prophage endolysin from strain HMP9231) MSKKGIDVSEWQGDIDFNAVKASGVEFVIIRAGYGIGCKDKWFEQNYRKAKTAGLDVGAYWYSYANSGFEAAEEAQSLMNMLSGKSFEYPVYFDLEEKSQLNRGRAFCDSLITSFCNKLEACGYYAGFYTSLSTANNLVSAHVRNRYALWIAQWNTHCNYQGSYGLWQYSSNGSVPGVAGRVDMDYAYVDYPSIIKNAGLNGCKNGGSDQAARTSSIDEVAREVINGAWGNGSTRKQRLTSAGYDYASVQNKVNELLGVKACRKSVDELAREVIRGAWGNGSTRKQRLAQAGYDYDTVQKRVNELL	−3.5 log 10
H4B4: natural Gardnerella prophage endolysin from strain Gv5-1 (protein, EL4_strain_Gv5-1) MSKKGIDVSEWQGDIDFNAVKASGVEFVIIRAGYGIGCKDKWFEQNYRKAKTCGLDVGAYWYSYANSGFEAAEEAQSCVNMLSGKSFEYPVYFDLEEKSQLNRGRAFCDSLITSFCSKLETYGYYAGFYTSLSVVNNLVSAHVRDRYALWIAQWNTHCSYQGSYGLWQYSSSGSVPGVAGRVDMDYAYVDYPSIIKNVGLNGCKNGGSDQATRTSSIDEVAREVINGAWGNGNERKQRLTSAGYDYASVQNKVNKLLGVKAYRKSVDELAREVIRGTWGNGNERKQRLAQAGYDYDTVQKRVNELL	−2.0 log 10
H3B3: natural Gardnerella prophage endolysin from strain Gv18-4 (protein, EL3_strain_Gv18-4) MSKKGIDVSVWQGDIDFNSVKASGVEFVIIRAGYGIGHKDKWFEENYRKAKTAGLDVGSYWYSYASSAGEASEEAQSCVNILSGKSFEYPIYFDLEEKSQLNRGRDFCDSLITSFCNKLEACGYYAGFYTSLSVANNLVSSHVRDRYALWIAQWNTHCSYQGSYGLWQYSSSGSVNGIAGRVDMDYAYVDYPSVIKNAGLNGYQNGGSYTAPQTSSIDEVAREVINGDWGNGNDRKNRLISAGYDYASVQNKVNELLGVKAYRKSVDELAREVIRGTWGNGSMRKHRLTQAGYDYDAVQKRVNELL	−5.4 log 10
H12B12: natural Gardnerella prophage endolysin from strain 3549624 (protein, EL12_strain_3549624_non-prophage) MSKKGIDVSVWQGDIDFNAVKASGVEFVIIRAGYGIGHKDKWFEENYRKAKTAGLDVGSYWYSYASSAGEVALEAQSCVNILSGKSFEYPVYFDLEEKSQLNRGRDFCDSLITSFCNKLEACGYYAGFYTSLSVANNLVSSHVRDRYALWIAQWNTHCSYQGSYGLWQYSSSGSVNGIAGRVDMDYAYVDYPSVIKNAGLNGYQNGGSYTAPQTSSIDEVAREVINGDWGNGIERKNRLTSAGYDYTSVQNKVNELLGVKAYRKSVDELAREVIRGTWGNGKTRKQRLTQAGYDYNAVQKRVNELL	−1.9 log 10
H11B11: natural Gardnerella prophage endolysin from strain JCP8017A (protein, EL11_strain_JCP8017A, natural Gardnerella prophage endolysin from strain JCP8017A) MSKRGIDVSVWQGDIDFNAVKASGVEFVIIRAGYGIGHKDKWFEQNYRKAKTTGLDVGAYWYSYASSAGEAAEEAQSCVNILSGKSFEYPVYFDLEEKSQLNRGRDFCDSLITSFCNKLETYGYYAGFYTSLSVANNLVSSHVRDRYALWIAQWNTHCDYQGSYGLWQYSSSGSVDGIAGRVDMDYTYVDYPSVIKKAGLNGYKNGGSYTAPQTSSIDEVAREVINGDWGNGNERKNRLTSAGYDYTSVQNKVNELLGVKAYRKSVDELAREVIRGTWGNGSTRKQRLTQAGYDYDAVQKRVNELL	−3.5 log 10
H5B5: natural Gardnerella prophage endolysin from strain JCP7276 (protein, EL5_strain_JCP7276, natural Gardnerella prophage endolysin from strain JCP7276) MSKKGIDVSEWQGDIDFNAVKASGVEFVIIRAGYGIGCKDKWFEQNYRKAKTAGLDVGAYWYSYANSSSEAAEEAQSCANMLSGKSFEYPVYFDLEEKSQLNRGRAFCDSLITGFCSKLEACGYYAGFYTSLSTANNLVSAHVRNRYALWIAQWNTHCSYQGSYGLWQYSSNGSVPGVAGRVDMDYAYKDYPSIIKNAGLNGCKNGGSDQAARTSSIDEVAREVINGAWGNGNERKQRLTQAGYDYTSVQNKVNKLLGVKACRKSVDELAREVIRGTWGNGNERKNRLTQAGYDYDTVQKRVNELL	−0.1 log 10
H7B7: natural Gardnerella prophage endolysin from strain AMD (protein, EL7_strain_AMD, natural Gardnerella prophage endolysin from strain AMD) MSKKGIDVSEWQGDIDFNAVKASGVEFVIIRAGYGIGCKDKWFEQNYRKAKTAGLDVGAYWYSYANSASEAAEEAQSCANMLSGKSFEYPVYFDLEEKSQLNRGRAFCDSLITSFCSKLETYGYYAGFYTSLSTANNLVSSHVRNRYALWIAQWNTHCSYQGSYGLWQYSSSGSVPGVAGRVDMDYAYKDYPSIIKNAGLNGCKNGGSDQAARTSSIDEVAREVINGAWGNGNERKQRLTQAGYDYTSVQNKVNKLLGVKACRKSVDELAREVIRGTWGNGNERKNRLTQAGYDYDTVQKRVNELL	−3.2 log 10
H2B2: natural Gardnerella prophage endolysin from strain Gv18-4 (protein, EL2_strain_Gv18-4) MSKRGIDVSEWQGDIDFNAVKASGVEFVIIRAGYGIGCKDKWFEQNYRKAKTCGLDVGAYWYSYANSGFEAAEEAQSCVNMLSGKSFEYPVYFDLEEKSQLNRGRAFCDSLITGFCNKLESCGYYAGFYTSLSTANNLVSAHVRNRYALWIAQWNTHCSYQGSYGLWQYSSSGSVPGVAGRVDMDYAYVDYPSIIKNVGLNGCKNGGSDQAARTSSIDEVAREVINGAWGNGNERKQRLTSAGYDYASVQNKVNELLGVKACRKSVDEIAREVIRGTWGNGSTRKQRLTQAGYDYDTVQKRVNELL	−5.4 log 10
